{"source": "patent US20170008937", "biological_target": "GST-Rac1 (UniProt P63000)"}
{"substance": "TcdASAS (Clostridium difficile toxin A with VNN mutated to SAS: V1109S, N1110A, N1111S)", "values": [{"measurement": "Rac1 glucosylation in vitro (Western blot, 100 nM toxin, 3 hours)", "result": "not impaired in their capacity to glucosylate Rac1 in vitro"}]}
